According to the supplement of paper PMC7877785:
± gives the uncertainty stated by the source.

Assay: self-splicing fitness, log relative to wild type (ln ratio); higher = more splicing; Tetrahymena group I intron in knt gene, E. coli kanamycin selection, DiMSum; sequences stand for … in CUCUCU…GGAGGGAAAAGUUAUCAGGCAUGCACCUGGUAGCUAGUCUUUAAACCAAUAGAUUGCAUCGGUUUAAAAGGCAAGACCGUCAAAUUGCGGGAAAGGGGUCAACAGCCGUUCAGUACCAAGUCUCAGGGGAAACUUUGAGAUGGCCUUGCAAAGGGUAUGGUAAUAAGCUGACGGACAUGGUCCUAACCACGCAGCCAAGUCCUAAGUCAACAGAUCUUCUGUUGAUAUGGAUGCAGUUCACAGACUAAAUGUCGGUCGGGGAAGAUGUAUUCUUCUCAUAAGAUAUAGUCGGACCUCUCCUUAAUGGGAGCUAGCGGAUGAAGUGAUGCAACACUGGAGCCGCUGGGAACUAAUUUGUAUGCGAAAGUAUAUUGAUUAGUUUUGGAGUACUCGUGGUCG
In short: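 Library with all eight P1ex-region intron nucleotides randomised, intron inside the knt kanamycin-resistance gene on pET-22b(+), in E. coli BL21(DE3). Cells grew overnight at 37°C or 30°C on LB agar with or without 25 μg/mL kanamycin (plus 100 μg/mL carbenicillin, 50 μM IPTG, 0.2% rhamnose), in six replicate transformations. Pooled colonies were amplicon-sequenced on Illumina HiSeq 2500. DiMSum fitness is the error-weighted combination of wild-type-normalised replicate fold changes, kanamycin versus none.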

Sequence | self-splicing fitness (ln) (30 °C) | self-splicing fitness (ln) (37 °C)
GUCAAGCAAUAUUACGAGAC | -3.46 ± 0.19 | -3.84 ± 0.26
GUCAAGCAAUAUUACGAUUU | -0.962 ± 0.08 | -1.42 ± 0.11
GUCAAGCAAUAUUACGCAAA | -1.99 ± 0.15 | -1.46 ± 0.16
GUCAAGCAAUAUUACGCACG | -1.96 ± 0.13 | -1.49 ± 0.19
GUCAAGCAAUAUUACGCAUG | -4.62 ± 0.34 | -2.33 ± 0.17
GUCAAGCAAUAUUACGCGCC | -4.2 ± 0.3 | -1.95 ± 0.23
GUCAAGCAAUAUUACGCUCC | -1.87 ± 0.28 | -1.62 ± 0.29
GUCAAGCAAUAUUACGGAAU | -2.07 ± 0.12 | -1.09 ± 0.12
GUCAAGCAAUAUUACGGACA | -3.06 ± 0.39 | -2.09 ± 0.19
GUCAAGCAAUAUUACGGCAU | -1.55 ± 0.083 | -0.119 ± 0.1
GUCAAGCAAUAUUACGGUUA | -2.2 ± 0.14 | -0.972 ± 0.1
GUCAAGCAAUAUUACGUAGU | -1.21 ± 0.068 | -0.468 ± 0.1
GUCAAGCAAUAUUACGUAUA | -2.31 ± 0.13 | -0.798 ± 0.14
GUCAAGCAAUAUUACGUCAU | -2.22 ± 0.075 | -1.16 ± 0.064
GUCAAGCAAUAUUACGUGAC | -5.1 ± 0.39 | -4.13 ± 0.32
GUCAAGCAAUAUUACGUGAG | -1.2 ± 0.054 | -0.505 ± 0.067
GUCAAGCAAUAUUACGUUAA | -2.02 ± 0.12 | -1.74 ± 0.1
GUCAAGCAAUAUUACGUUAU | -2.02 ± 0.088 | -1.15 ± 0.09
GUCCAGCAAUAUUACGAAGA | -0.611 ± 0.19 | -1.51 ± 0.24
GUCCAGCAAUAUUACGAUCG | -1.8 ± 0.14 | -1.54 ± 0.14
GUCCAGCAAUAUUACGAUCU | -2.44 ± 0.16 | -0.0861 ± 0.12
GUCCAGCAAUAUUACGCAGG | -4.01 ± 0.18 | -3.72 ± 0.24
GUCCAGCAAUAUUACGCCAG | -3.38 ± 0.23 | -1.15 ± 0.2
GUCCAGCAAUAUUACGCCGU | -1.29 ± 0.13 | -0.122 ± 0.13
GUCCAGCAAUAUUACGCGGG | -4.23 ± 0.26 | -2.92 ± 0.24

Sequence | self-splicing fitness (ln) (30 °C) | self-splicing fitness (ln) (37 °C)
GUCCAGCAAUAUUACGCGUC | -1.15 ± 0.088 | 0.346 ± 0.12
GUCCAGCAAUAUUACGCUAA | -0.5 ± 0.11 | 0.303 ± 0.11
GUCCAGCAAUAUUACGCUCA | -0.307 ± 0.092 | -0.112 ± 0.11
GUCCAGCAAUAUUACGCUGA | -0.534 ± 0.092 | -0.466 ± 0.13
GUCCAGCAAUAUUACGGAUG | -0.272 ± 0.077 | 0.023 ± 0.1
GUCCAGCAAUAUUACGGCAA | -0.33 ± 0.097 | -0.363 ± 0.085
GUCCAGCAAUAUUACGGCUC | -0.432 ± 0.077 | 0.909 ± 0.12
GUCCAGCAAUAUUACGGGAA | -0.0663 ± 0.071 | -0.474 ± 0.077
GUCCAGCAAUAUUACGGGAU | -4.04 ± 0.2 | -2.76 ± 0.22
GUCCAGCAAUAUUACGUACU | -2.47 ± 0.14 | -1.53 ± 0.14
GUCCAGCAAUAUUACGUCAU | -0.201 ± 0.077 | 0.269 ± 0.081
GUCCAGCAAUAUUACGUGUC | -0.424 ± 0.057 | 0.0485 ± 0.068
GUCCAGCAAUAUUACGUUCC | -1.46 ± 0.083 | -0.198 ± 0.1
GUCGAGCAAUAUUACGAACG |  | -1.02 ± 0.23
GUCGAGCAAUAUUACGCACG | -1 ± 0.28 | 
GUCGAGCAAUAUUACGCGGU |  | -1.94 ± 0.32
GUCGAGCAAUAUUACGGGAG | -3.67 ± 0.21 | -2.4 ± 0.2
GUCGAGCAAUAUUACGUCCA | -2.21 ± 0.22 | -2.53 ± 0.26
GUCGAGCAAUAUUACGUGGA |  | -2.46 ± 0.26
GUCGAGCAAUAUUACGUGGG | -2.55 ± 0.21 | -0.374 ± 0.14
GUCUAGCAAUAUUACGACAA | -2.6 ± 0.23 | -1.56 ± 0.26
GUCUAGCAAUAUUACGACCA | -0.99 ± 0.26 | -2.1 ± 0.29
GUCUAGCAAUAUUACGACCU | -2.33 ± 0.21 | -1.21 ± 0.17
GUCUAGCAAUAUUACGACGA | -1.86 ± 0.18 | -0.293 ± 0.16
GUCUAGCAAUAUUACGAGUU | -2.13 ± 0.12 | -1.32 ± 0.1

Sequence | self-splicing fitness (ln) (30 °C) | self-splicing fitness (ln) (37 °C)
GUCUAGCAAUAUUACGAUCG | -3.06 ± 0.17 | -1.09 ± 0.16
GUCUAGCAAUAUUACGAUUU | -0.743 ± 0.056 | 0.36 ± 0.064
GUCUAGCAAUAUUACGCAGG | -3.11 ± 0.3 | -3.31 ± 0.37
GUCUAGCAAUAUUACGCAUA | -1.08 ± 0.14 | -0.121 ± 0.12
GUCUAGCAAUAUUACGCAUU | 0.0861 ± 0.1 | 0.379 ± 0.092
GUCUAGCAAUAUUACGCCCC | 0.281 ± 0.13 | -0.182 ± 0.12
GUCUAGCAAUAUUACGCCCU | -0.702 ± 0.36 | -0.472 ± 0.37
GUCUAGCAAUAUUACGCCUU | -0.385 ± 0.16 | 0.266 ± 0.15
GUCUAGCAAUAUUACGCGAG | -1.08 ± 0.13 | 0.182 ± 0.13
GUCUAGCAAUAUUACGCGUA | -0.384 ± 0.081 | 0.391 ± 0.09
GUCUAGCAAUAUUACGGGGC |  | -2.34 ± 0.36
GUCUAGCAAUAUUACGUACC | -0.591 ± 0.29 | -0.721 ± 0.3
GUCUAGCAAUAUUACGUCGG | -3.43 ± 0.2 | -2.51 ± 0.2
GUCUAGCAAUAUUACGUGUU | -1.61 ± 0.092 | -0.352 ± 0.093
GUCUAGCAAUAUUACGUUAU | -0.954 ± 0.061 | -0.704 ± 0.055
GUCUAGCAAUAUUACGUUUA | -0.64 ± 0.12 | -1 ± 0.1
GUGAAGCAAUAUUACGAAGU | -0.832 ± 0.14 | -1.05 ± 0.16
GUGAAGCAAUAUUACGACUC | 0.243 ± 0.26 | -0.398 ± 0.28
GUGAAGCAAUAUUACGAUAA | -0.524 ± 0.15 | 0.6 ± 0.15
GUGAAGCAAUAUUACGAUAU | -0.274 ± 0.044 | -0.103 ± 0.058
GUGAAGCAAUAUUACGAUUC | -0.545 ± 0.098 | 0.0735 ± 0.17
GUGAAGCAAUAUUACGCACC |  | -1.92 ± 0.34
GUGAAGCAAUAUUACGCAUC |  | -1.69 ± 0.49
GUGAAGCAAUAUUACGCCCU | -0.176 ± 0.13 | 0.602 ± 0.15
GUGAAGCAAUAUUACGCUCG | -1.69 ± 0.11 | -0.267 ± 0.13

Sequence | self-splicing fitness (ln) (30 °C) | self-splicing fitness (ln) (37 °C)
GUGAAGCAAUAUUACGGCAC | -0.747 ± 0.16 | -0.289 ± 0.33
GUGAAGCAAUAUUACGGCAU | 0.0954 ± 0.083 | 0.334 ± 0.089
GUGAAGCAAUAUUACGGCUC | -0.996 ± 0.091 | -0.646 ± 0.099
GUGAAGCAAUAUUACGGGCU | -2.08 ± 0.13 | -0.869 ± 0.15
GUGAAGCAAUAUUACGGGUU | -1.67 ± 0.069 | -1.4 ± 0.1
GUGAAGCAAUAUUACGUAUG | -2.38 ± 0.085 | -1.29 ± 0.088
GUGAAGCAAUAUUACGUGCC | -1.92 ± 0.32 | -1.32 ± 0.36
GUGCAGCAAUAUUACGAACA | -1.32 ± 0.22 | -1.25 ± 0.2
GUGCAGCAAUAUUACGAAUA | -1.79 ± 0.14 | -1.07 ± 0.17
GUGCAGCAAUAUUACGAAUC | -1.28 ± 0.17 | -0.491 ± 0.18
GUGCAGCAAUAUUACGAAUU | -1.43 ± 0.091 | -0.441 ± 0.12
GUGCAGCAAUAUUACGAGGU | -3.63 ± 0.3 | -2.47 ± 0.21
GUGCAGCAAUAUUACGCCCG | -1.69 ± 0.36 | -1.51 ± 0.37
GUGCAGCAAUAUUACGCGAG | -2.55 ± 0.13 | -1.7 ± 0.12
GUGCAGCAAUAUUACGCUGG | -2.41 ± 0.12 | -1.09 ± 0.13
GUGCAGCAAUAUUACGCUGU | -3.35 ± 0.24 | -2.63 ± 0.26
GUGCAGCAAUAUUACGGACG | -2.47 ± 0.1 | -0.949 ± 0.11
GUGCAGCAAUAUUACGGUAC | -2.67 ± 0.15 | -2.07 ± 0.17
GUGCAGCAAUAUUACGUAGG | -1.28 ± 0.11 | -1.05 ± 0.16
GUGCAGCAAUAUUACGUCUA | -0.238 ± 0.078 | 0.283 ± 0.083
GUGCAGCAAUAUUACGUCUU | -1.33 ± 0.083 | -0.0365 ± 0.11
GUGCAGCAAUAUUACGUGGA | -3.24 ± 0.28 | -2.24 ± 0.19
